According to paper PMC10043188:

Biological target: T1, His-tagged Arc, wild type, purified, Q9WV31
T1 chain: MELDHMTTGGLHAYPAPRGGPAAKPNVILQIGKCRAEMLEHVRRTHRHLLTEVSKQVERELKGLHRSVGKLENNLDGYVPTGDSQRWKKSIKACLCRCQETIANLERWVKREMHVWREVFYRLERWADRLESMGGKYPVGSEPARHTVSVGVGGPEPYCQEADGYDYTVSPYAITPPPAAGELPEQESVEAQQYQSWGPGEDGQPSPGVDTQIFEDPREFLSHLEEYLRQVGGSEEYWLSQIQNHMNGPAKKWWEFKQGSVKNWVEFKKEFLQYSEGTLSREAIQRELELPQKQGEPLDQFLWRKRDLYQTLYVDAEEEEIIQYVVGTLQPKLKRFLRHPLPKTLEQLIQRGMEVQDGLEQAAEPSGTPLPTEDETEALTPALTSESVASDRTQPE
Assay: SDS-PAGE under non-reducing conditions; purified His-Arc in SDS sample buffer without 2-mercaptoethanol, heated 5 min at 95°C; total protein stain and anti-Arc immunoblot
Details: remark: other sources report otherwise

B1: His-tagged Arc, wild type, purified, Q9WV31 1-396 (natural protein)
chain: MELDHMTTGGLHAYPAPRGGPAAKPNVILQIGKCRAEMLEHVRRTHRHLLTEVSKQVERELKGLHRSVGKLENNLDGYVPTGDSQRWKKSIKACLCRCQETIANLERWVKREMHVWREVFYRLERWADRLESMGGKYPVGSEPARHTVSVGVGGPEPYCQEADGYDYTVSPYAITPPPAAGELPEQESVEAQQYQSWGPGEDGQPSPGVDTQIFEDPREFLSHLEEYLRQVGGSEEYWLSQIQNHMNGPAKKWWEFKQGSVKNWVEFKKEFLQYSEGTLSREAIQRELELPQKQGEPLDQFLWRKRDLYQTLYVDAEEEEIIQYVVGTLQPKLKRFLRHPLPKTLEQLIQRGMEVQDGLEQAAEPSGTPLPTEDETEALTPALTSESVASDRTQPE
stoichiometry N: 2
